Laboratory results from patent US5488099, “Multifunctional chimeric neurotrophic factors” (dated 1996).

B1: wild-type brain-derived neurotrophic factor (ligand)
chain: HSDPARRGELSVCDSISEWVTAADKKTAVDMSGGTVTVLEKVPVSKGQLKQYFYETKCNPMGYTKEGCRGIDKRHWSNQCRTTQSYVRALTMDSKKRIGWRFIRIDTSCVCTLTIKRGR
B2: wild-type rat nerve growth factor (ligand)
chain: SSTHPVFHMGEFSVCDSVSVWVGDKTTATDIKGKEVTVLGEVNINNSVFKQYFFETKCRAPNPVESGCRGIDSKHWSNYCTTTHTFVKALTTDDKQAAWRFIRIDTACVCVLSRKAARRG
B3: NGF mutant I31A (ligand)
chain: SSTHPVFHMGEFSVCDSVSVWVGDKTTATDAKGKEVTVLGEVNINNSVFKQYFFETKCRAPNPVESGCRGIDSKHWSNYCTTTHTFVKALTTDDKQAAWRFIRIDTACVCVLSRKAARRG

Key:
[1] = molecular target: TrkB of BDNF-responsive neurons from embryonic chick nodose ganglia (chick)
[2] = molecular target: T1, TrkB (Rattus norvegicus (Rat), UniProt Q63604); assay: competition with 125I-BDNF on rtrkB-3T3 cells, COS conditioned medium, relative binding from IC50
Description: (§1) Purified mouse NGF and BDNF were labeled with ^125I by the lactoperoxidase method to an average specific activity of 1×10^8 cpm/μg. For the labeling of BDNF, the modifications described by Rodriguez-Tebar et al. ([Rodriguez-Tebar, 1992]) were used. NIH3T3 fibroblasts expressing TrkA, TrkB or TrkC were used at 2 to 1–×10^6 cells/ml. Steady state binding was measured in competition assays performed at 4° C. using 1.5×10^-9M ^125I-BDNF and serial dilutions of conditioned media containing equivalent amounts of wt or mutated NGF protein. All components were added at the same time and the cells were collected by centrifugation after equilibrium was reached (90–120 minutes incubation). Cell pellets were then counted in a gamma counter. […] Nonspecific binding was measured in a parallel incubation to which 300 to 1000-fold molar excess of unlabelled purified factor was added. All results were corrected for this nonspecific binding, which was less than 10% (for NGF) or 30% (for BDNF) of total binding. The concentration of each chimeric, mutant and wild type molecule that gave 50% binding (IC$50$) was determined, and relative binding was calculated using the relationship:(mutant IC$50$/wild type IC$50$)X 100.

[3] = molecular target: TrkB (Rattus norvegicus (Rat)) (UniProt Q63604)
[4] = molecular target: T2, TrkA (Rattus norvegicus (Rat), UniProt P35739); assay: competition with 125I-NGF on rtrkA-3T3 cells, COS conditioned medium, relative binding from IC50
Description: (§2) FIG. 2A–D. TrkA receptor binding, receptor phosphorylation and biological activity of wild-type (wt) and chimeric molecules (see SEQ. ID. NOS. 1 and 2 for all chimeric constructions). […] Each point represents the mean of triplicate determinations. Standard deviation was at or generally below ±10%. (B) and (C) Tyrosine phosphorylation of TrkA receptors stimulated by wt NGF, wt BDNF and chimeric molecules. rtrkA-3T3 cells were treated with 100 ng/ml of the indicated recombinant proteins and assayed for tyrosine phosphorylation. Media from mock-transfected COS cells was used as negative control (CONTROL). Arrowhead indicates the migration of phosphorylated TrkA (p140^trk). The faster migrating band correspond to constituitively phosphorylated p140^trk precursors ([Kaplan, 1991]). (D) Serial dilutions of transfected COS cell conditioned medium containing equal amounts of wt and chimeric factors were assayed for their ability to stimulate neurite outgrowth from E8 chick sympathetic ganglia. Data from three determinations varied by ±20% of the average values reported here. Key symbols as in (A).
Purified mouse NGF and BDNF were labeled with ^125I by the lactoperoxidase method to an average specific activity of 1×10^8 cpm/μg. For the labeling of BDNF, the modifications described by Rodriguez-Tebar et al. ([Rodriguez-Tebar, 1992]) were used. NIH3T3 fibroblasts expressing TrkA, TrkB or TrkC were used at 2 to 1–×10^6 cells/ml. […] All components were added at the same time and the cells were collected by centrifugation after equilibrium was reached (90–120 minutes incubation). Cell pellets were then counted in a gamma counter.

[5] = molecular target: TrkA of NGF-responsive neurons from embryonic chick sympathetic ganglia (chick)
[6] = molecular target: T2, TrkA; assay: competition with 125I-NGF on rtrkA-3T3 cells
Description: as §2
Purified mouse NGF and BDNF were labeled with ^125I by the lactoperoxidase method to an average specific activity of 1×10^8 cpm/μg. For the labeling of BDNF, the modifications described by Rodriguez-Tebar et al. ([Rodriguez-Tebar, 1992]) were used. […] Cell pellets were then counted in a gamma counter.

[7] = molecular target: T1, TrkB; assay: competition with 125I-BDNF on rtrkB-3T3 cells
Description: as §1

[8] = molecular target: T2, TrkA; assay: competition with 125I-NGF on rtrkA-3T3 cells; remark: listed apart in the source
Description: as §1, with “Steady state binding was measured in competition assays performed at 4° C. using 1.5×10^-9M ^125I-BDNF and serial dilutions of conditioned media containing equivalent amounts of wt or mutated NGF protein.” left out
Figure 3A: FIG. 3A&B. NGF variable regions I, IV and V partially restore TrkA binding and biological activity of the NH_2+I+III+IV+V chimeric molecule (see SEQ. ID. NOS. 1 and 2 for all chimera construction). […] Each point represents the mean of triplicate determinations.

TrkB of BDNF-responsive neurons from embryonic chick nodose ganglia (chick), sequence (Q91987 whole entry): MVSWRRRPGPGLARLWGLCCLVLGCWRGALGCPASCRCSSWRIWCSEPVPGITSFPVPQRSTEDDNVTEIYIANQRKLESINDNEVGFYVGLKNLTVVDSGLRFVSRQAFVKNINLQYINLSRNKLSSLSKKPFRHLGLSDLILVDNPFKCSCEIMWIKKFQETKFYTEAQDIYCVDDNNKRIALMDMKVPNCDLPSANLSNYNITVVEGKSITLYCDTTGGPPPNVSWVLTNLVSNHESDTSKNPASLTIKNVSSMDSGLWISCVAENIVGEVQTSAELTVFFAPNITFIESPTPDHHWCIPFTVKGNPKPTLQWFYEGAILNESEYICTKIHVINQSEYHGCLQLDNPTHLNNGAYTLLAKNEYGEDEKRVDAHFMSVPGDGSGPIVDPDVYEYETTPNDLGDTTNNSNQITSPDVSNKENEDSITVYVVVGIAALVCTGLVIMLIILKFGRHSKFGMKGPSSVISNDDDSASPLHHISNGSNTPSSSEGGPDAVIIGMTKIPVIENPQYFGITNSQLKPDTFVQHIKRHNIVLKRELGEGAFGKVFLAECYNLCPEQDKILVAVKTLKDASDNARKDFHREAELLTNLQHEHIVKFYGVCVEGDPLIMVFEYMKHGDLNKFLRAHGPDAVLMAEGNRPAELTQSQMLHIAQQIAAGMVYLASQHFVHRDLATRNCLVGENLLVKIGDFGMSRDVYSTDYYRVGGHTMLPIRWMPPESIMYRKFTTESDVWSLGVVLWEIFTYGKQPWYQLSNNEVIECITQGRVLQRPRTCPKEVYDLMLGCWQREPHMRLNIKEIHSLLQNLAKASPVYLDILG

Row | Binder | Biological Activity % of wild type (maximal cell survival of dissociated embryonic nodose neurons) (% of wild type) [1] | Receptor Binding % of wild type [2] | EC50 of TrkB tyrosine phosphorylation [3] [ng/mL] | Receptor Binding % of wild type [4] | Biological Activity % of wild type (neurite outgrowth from explants of embryonic sympathetic ganglia) (% of wild type) [5] | binding result [6] | binding result [7] | fold reduction in receptor binding against wt NGF [8] [fold]
1 | B1 | 100 | 100 % of wild type | 5 | < 0.2 % of wild type | < 0.2 | no binding (tested: <0,2 % of wild type) |  | 
2 | B2 | < 5 | < 0.2 % of wild type |  | 100 % of wild type | 100 |  | no binding (tested: <0,2 % of wild type) | 
3 | B3 |  |  |  | 20 % of wild type | 25 |  |  | 4
